Measured values published in the supplement of paper PMC11865577.

Legend:
Assay in all cases: pull-down binding Z-score (relative to library population); higher = stronger binding
[1] = tested on: TO-3-N3 (biotin conjugate); settings: RNA library: Library-2
In short: (§1)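 To score binding, a beads-only signal was subtracted, barcoded replicate probes were averaged with the highest and lowest dropped, and the value was converted to a Z-score using the library mean and standard deviation. The input was 1 μg of Cy5- or Cy3-end-labelled RNA library, heat-folded in phosphate/NaCl/KCl buffer and mixed for 60 min at 25 °C with streptavidin beads carrying 100 pmol of biotin-conjugated small molecule. Bound RNA was eluted in hot SDS and hybridised to a DNA barcode microarray at 55.5 °C for 20 h.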

[2] = tested on: TO-3-N3-2 (biotin conjugate); settings: RNA library: Library-2
In short: as §1

TO-N3 (biotin conjugate) = settings: RNA library: Library-2
In short: as §1

[3] = tested on: G-clamp-N3 (biotin conjugate); settings: RNA library: Library-1 (pre-miRNA loops + repeats)
In short: as §1

[4] = tested on: TO-N3-2 (biotin conjugate); settings: RNA library: Library-2
In short: as §1

Sequence	pull-down binding Z-score [1]	pull-down binding Z-score [2]	pull-down binding Z-score (TO-N3 (biotin conjugate))	pull-down binding Z-score [3]	pull-down binding Z-score [4]
AUAGAACAUUGACAUCAACACUAG [hsa-mir-4278]	-0.104	-0.0605	-0.204	-2.05	-0.508
AUCAUAAUAAAGGUGUCAUGAU [hsa-mir-3682]	-0.489	-0.169	-0.879	-0.55	-0.694
AGAUCCCCUGUUAGAGACGGGCC [hsa-mir-6840]	0.114	0.351	0.562	-1.25	0.991
UGACUCAGAUCU [hsa-mir-759]	-0.321	-0.249	-0.271	-1.38	-0.155
AGGGCUGGGAUUACUAAAGCCCU [hsa-mir-1266]	-0.0287	-0.105	-0.158	1.24	-0.335
UGUUCACUUUCUAUAUGAUGAAUA [hsa-mir-656]	-1.09	-0.523	-1.4	-0.48	-1.7
UCAGGUGAAUGUGUCUGG [hsa-mir-3916]	-0.539	-0.427	-0.773	-1.06	-0.347
GAAGCCGCUCCCACCUGACCCUCACGGCCUC [hsa-mir-3605]	1.3	0.468	1.33	-0.691	1.46
UAGAUACUCAGGAGGGUGAGUAUCUA [hsa-mir-5689]	-0.511	-0.33	-0.797	1.64	-0.726
GUUACUAAUCUAACUAAUUGUAAC [hsa-mir-582]	0.0863	0.0952	0.00217	1.11	-0.722
UUCCUUGUCUGUAGCCAUGUCUAUGGGCUCUUGAG [hsa-mir-571]	0.494	-0.0353	0.461	-0.205	-0.131
AGGAGAAGGUGAGACCAAUGUCCUGGGUGCCACUCCU [hsa-mir-6124]	-0.524	-0.00463	-0.503	0.515	-0.139
GUGGUUUCAGGGCAGUGAUGUUGCCCCUCGGAAGAUAACUAU [hsa-let-7b]	-0.324	-0.113	-0.128	0.231	0.235
AUUGCUGGACGCUGCCCUGGGCAU [hsa-mir-25]	0.362	0.488	1.12	-0.192	1.4
GACAGGGAAAAGCACACAAGGAACUUGUC [hsa-mir-3909]	-0.138	0.112	-0.0969	0.557	-0.0273
GGCCACCCAGGGAGUAAGUAGCC [hsa-mir-4480]	2.34	0.908	2.09	0.515	1.42
GGGGUCUUGCUCUAUU [hsa-mir-6088]	0.523	0.136	0.572	0.123	0.111
ACGUCCAGUGGUGCAGAGGUAAUGGACGU [hsa-mir-1306]	0.0986	0.227	0.283	2.13	1.37
CUGCCAUUGAAAGUAAAGGCAA [hsa-mir-548ag-2]	0.656	0.239	0.608	0.525	0.104

Sequence	pull-down binding Z-score [1]	pull-down binding Z-score [2]	pull-down binding Z-score (TO-N3 (biotin conjugate))	pull-down binding Z-score [3]	pull-down binding Z-score [4]
AAAAUGUUUGUCAUAAACCGUUUU [hsa-mir-335]	-0.185	-0.302	-0.158	-0.914	-0.934
GUGAUAGGAUUUAUCAC [hsa-mir-4999]	-0.154	-0.295	-0.436	-0.554	-0.819
UAGGUUGUGUGCUGUCCAGCCUG [hsa-mir-26b]	-0.484	-0.429	-0.388	-0.497	0.271
CAGCCUUGACAACAGGCUG [hsa-mir-3130-2]	0.503	-0.184	0.391	-0.151	-0.289
CAUCAUUUGCACUACUGAUACUUGGGGUCAGAUAAUUGUUUGUGGUG [hsa-mir-4447]	-0.801	-0.334	-0.914	0.115	-0.616
CUGAGGAAUUUGCUGGGAUAUGUCAG [hsa-mir-584]	0.181	0.168	0.66	0.609	0.799
UGAGCUGUGAUGUUGCUCUCGAGCUGG [hsa-mir-769]	0.732	0.336	1.02	-0.872	1.27
GGCGGUGAAGCUCC [hsa-mir-4532]	-0.22	-0.285	-0.104	0.399	0.727
CAGACAAUAUAGCUGAGUUUGUCUG [hsa-mir-215]	-0.801	-0.547	-1.24	-0.604	-1.03
GGAGGCCCCGCUCUGCUGCCGACCCUGUGGAGCGGAGGGUGAAGCCUCC [hsa-mir-3180-4]	0.3	0.118	0.553	1.15	1.24
GGGCCCCAAGACUCGGGGUUU [hsa-mir-4651]	0.633	-0.00221	0.65	-0.146	0.197
AGAAGCUAAAGUGUAGAUCAAACGCAUAAUGGCUGA [hsa-mir-4500]	0.197	0.195	0.65	-0.364	0.233
UGCAGAUGUGGACUGCUAAAUGCA [hsa-mir-1253]	-0.411	-0.171	-0.275	-0.572	0.384
CCUGCCUCAGAACUACUGAACAGAGUCACUGGGUGUGGA [hsa-mir-1289-2]	-0.292	-0.00545	0.181	0.873	0.785
GAACUUUUACGGUGAACCAGGAGGUUC [hsa-mir-629]	0.0537	-0.139	-0.0515	-0.428	-0.0865
GUUCAGAGUCUGUUUUUGUCUAGC [hsa-mir-29c]	-0.508	0.0089	-0.313	-0.124	-0.0332
UAGAGUAGGAGAGCCCACUGA [hsa-mir-6846]	0.712	0.147	1.28	0.203	1.21
GAAGCUCCUAUAGCUCCUGUAGCUUC [hsa-mir-578]	0.48	0.166	0.407	-0.978	0.587
UUUGGUAUUACUUUCAGUGGCAAA [hsa-mir-548j]	-0.416	0.0283	-0.448	0.937	-0.485

Sequence	pull-down binding Z-score [1]	pull-down binding Z-score [2]	pull-down binding Z-score (TO-N3 (biotin conjugate))	pull-down binding Z-score [3]	pull-down binding Z-score [4]
CUUUUGUUCAAAUAAAAAUGCAAAAG [hsa-mir-651]	-0.729	-0.367	-1.06	-0.842	-1.25
ACUAGAUUUGAAUCCAGACCUUUAGU [hsa-mir-5584]	0.878	0.3	0.715	-0.461	-0.111
UGUUUAUGUUAUUUAUGGUUAAACA [hsa-mir-376c]	-0.655	-0.269	-0.887	0.239	-0.967
AGUCACUUACACUACAUGUCACU [hsa-mir-892a]	-0.926	-0.63	-1.08	-0.82	-0.587
CCAAAUCCUUUUCUGAUUUGG [hsa-mir-4520-2]	-0.645	-0.574	-1.03	-0.824	-1.69
GACACUUUCACUAUAUAUAGUGGC [hsa-mir-3156-3]	-0.049	-0.0836	-0.354	-0.25	-0.533
GUGGAGCCAAAAUUAGAAGGGCCAAAAUUCUACCUGGCCCACUACCACAG [hsa-mir-3978]	-0.3	0.318	-0.00817	-0.932	0.705
AAGUGCCGUCCUCAUGAGCCCCU [hsa-mir-6769b]	0.296	0.181	0.59	-0.873	0.802
UAGGGCUGGAUGGUAGGGCCCA [hsa-mir-6890]	0.343	0.343	0.642	2.15	1.13
CUGUCCUGGACUGGGGUCAGACUGUGCCCCGAGGAGAAGCAG [hsa-mir-922]	-0.2	-0.166	0.794	0.368	1.47
GCCUCUCUGAGCAUGCAUUCCUGAGACUC [hsa-mir-5695]	0.286	0.0721	0.481	-1.38	0.547
AAGCAGGGUCGGGCCUGGUU [hsa-mir-7641-2]	0.415	0.0218	0.442	0.553	0.499
ACAGCAGUCUUACUGAAGGUUUCCUGGAAACCACGCACAUGCUGU [hsa-mir-744]	-0.304	-0.233	-0.165	-0.613	-0.5
CUACAUCGUGGAAGCCAGCACCAUGCAG [hsa-mir-455]	0.731	-0.206	0.826	0.169	0.773
CAAUCACAUGUAAUUAGGUGUGAUUG [hsa-mir-510]	-0.789	-0.773	-1.09	1.4	-1.29
GCGGCUGUUAAUGAUUUUAACAGUUGC [hsa-mir-449c]	-0.84	-0.119	-1.14	0.888	-1.2
CCCAUAAGGGUCGAAUGGG [hsa-mir-4713]	0.401	-0.0623	0.272	-0.205	0.0587
GUGUUUGUGACAUAAUUUGU [hsa-mir-325]	0.174	0.252	0.0205	-1.02	-0.231
UGUUUCUUUAAUGAGGACGAAACA [hsa-mir-329-1]	0.65	0.302	0.46	1.67	-0.326
